# Data from publication PMC8699718, “A structurally conserved site in AUP1 binds the E2 enzyme UBE2G2 and is essential for ER-associated degradation” (PLoS Biology, 2021).
# T1: UBE2G2 (Homo sapiens, UniProt P60604)
# T1 construct: made in house
# T1 sequence (P60604 1-165): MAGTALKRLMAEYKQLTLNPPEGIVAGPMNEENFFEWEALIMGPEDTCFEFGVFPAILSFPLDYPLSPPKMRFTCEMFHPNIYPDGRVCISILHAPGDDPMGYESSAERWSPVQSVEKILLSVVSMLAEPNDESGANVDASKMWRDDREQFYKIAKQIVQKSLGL
# T2: purified UBE2G2 (UniProt P60604 1-165, ^15N-labeled for NMR)
# T2 construct: UBE2G2, purified recombinant protein used for ITC, FP, MST and NMR; also called apo-UBE2G2; ^15N-labeled UBE2G2
# T2 sequence (looked up): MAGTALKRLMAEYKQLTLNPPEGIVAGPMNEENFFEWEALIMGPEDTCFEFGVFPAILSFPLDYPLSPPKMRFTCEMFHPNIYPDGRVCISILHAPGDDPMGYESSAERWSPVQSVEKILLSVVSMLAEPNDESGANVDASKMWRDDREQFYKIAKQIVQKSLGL
# T3: UBE2G2:G2BR^gp78 complex (UniProt P60604 1-165, ^15N-labeled)
# T3 construct: UBE2G2, as m15; N-terminal Trp residue added for peptide quantification, as m17; gp78 G2BR, residues 574-600, as m17; Complex formed before titration with the gp78 RING; also called G2BR^gp78:UBE2G2
# T3 sequence 1: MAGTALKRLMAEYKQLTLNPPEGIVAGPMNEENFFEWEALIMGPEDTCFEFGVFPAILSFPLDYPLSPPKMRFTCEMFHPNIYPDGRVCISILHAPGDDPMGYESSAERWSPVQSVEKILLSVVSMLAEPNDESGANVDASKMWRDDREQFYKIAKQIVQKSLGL
# T3 sequence 2: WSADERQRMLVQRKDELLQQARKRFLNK
# T4: UBE2G2:G2BR^AUP1 complex (UniProt P60604 1-165, ^15N-labeled)
# T4 construct: UBE2G2, as m15; AUP1 G2BR, residues 378-404, as m16; Complex formed before titration with the gp78 RING; also called G2BR^AUP1:UBE2G2
# T4 sequence 1: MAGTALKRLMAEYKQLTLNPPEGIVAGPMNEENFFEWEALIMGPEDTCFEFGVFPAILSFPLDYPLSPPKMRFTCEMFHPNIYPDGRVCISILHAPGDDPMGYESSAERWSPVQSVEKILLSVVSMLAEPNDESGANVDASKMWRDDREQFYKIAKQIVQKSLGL
# T4 sequence 2: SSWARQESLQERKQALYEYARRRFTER
# Key:
# [1] = system: UBE2D3/UBCH5C; test: GST pulldown of in vitro translated 35S-UBE2D3; format: binding; conditions: GST-AUP1 aa 292 to 410, overnight 4°C, pH 7.4
# Description: (§1) Fig 3 The AUP1–UBE2G2 interaction is required for ERAD. (A) Equimolar amounts of GST-AUP1 (aa 292 to 410) or GST were immobilized on glutathione beads and binding to the indicated in vitro translated ^35S-labeled E2s was assessed. Left panel is 5% of input used for binding. E2s are referred to by their unique alpha-numeric designation (e.g., UBE2G1 and UBE2J1). (B) HT1080 or UBE2G2 KO cells were transfected with INSIG-1-MYC and degradation assessed by CHX chase. […] (D) Cells were transfected with NHK-MYC and HA-ubiquitin and ubiquitination of NHK assessed following proteasome inhibition and IP (right panel). Left panel is 10% of total cell lysate used for IP, indicating no discernable change in total ubiquitination. (E) Levels of endogenous HRD1 were monitored by CHX chase in the indicated cell types. (F) Ubiquitination of endogenous HRD1 was assessed following IP with HRD1 antiserum. Arrow in upper panel indicates migration of unmodified HRD1. Control immunoprecipitates using rabbit serum are shown for comparison. […]
# (§2) In vitro translated ^35S methionine-labeled E2s were generated using the E. coli T7-S30 Extract System (Promega) and excess ^35S methionine was removed by desalting twice with Zeba Spin Desalting Columns (Thermo Scientific). GST fusion proteins were quantified by Coomassie blue staining. […] Binding was quantified using ImageQuant Software.
# [2] = biological target: T1, UBE2G2; test: GST pulldown of in vitro translated 35S-UBE2G2; format: binding; conditions: GST-AUP1 aa 292 to 410 on glutathione beads, ~3 pmol GST fusion, ~0.2 pmol E2, overnight 4°C, pH 7.4
# Description: Fig 3 The AUP1–UBE2G2 interaction is required for ERAD. (A) Equimolar amounts of GST-AUP1 (aa 292 to 410) or GST were immobilized on glutathione beads and binding to the indicated in vitro translated ^35S-labeled E2s was assessed. Left panel is 5% of input used for binding. E2s are referred to by their unique alpha-numeric designation (e.g., UBE2G1 and UBE2J1). (B) HT1080 or UBE2G2 KO cells were transfected with INSIG-1-MYC and degradation assessed by CHX chase. […] (D) Cells were transfected with NHK-MYC and HA-ubiquitin and ubiquitination of NHK assessed following proteasome inhibition and IP (right panel). Left panel is 10% of total cell lysate used for IP, indicating no discernable change in total ubiquitination. (E) Levels of endogenous HRD1 were monitored by CHX chase in the indicated cell types. (F) Ubiquitination of endogenous HRD1 was assessed following IP with HRD1 antiserum. Arrow in upper panel indicates migration of unmodified HRD1. Control immunoprecipitates using rabbit serum are shown for comparison. The data underlying this figure can be found in S1 Data. aa, amino acid; AUP1, ancient ubiquitous protein 1; CHX, cycloheximide; ERAD, endoplasmic reticulum–associated degradation; IP, immunoprecipitation; KO, knockout; WT, wild type.
# Fig 6 Disruption of UBE2G2:G2BR^AUP1 interaction abrogates AUP1 function in cells. (A) GST or indicated GST-AUP1 fusions (aa 292 to 410, expression shown in Coomassie-stained gel) were immobilized on glutathione beads and binding to ^35S-UBE2G2 was assessed as in Fig 3A. Mutations include 2A (R382A/Q383A), 2E (R382E/Q383E), and 5E (R382E/Q383E/K390E/R398E/R400E). (B) AUP1 KO cells were transfected with NHK-HA and forms of full-length AUP1-FLAG with the indicated point mutations from (A) and NHK degradation assessed by CHX chase. (C) Binding assay performed as in (A) with AUP1 mutants predicted to disrupt hydrophobic interactions with UBE2G2. (D) Cellular assay performed as in (B) with AUP1-FLAG mutants that disrupt interactions with UBE2G2 in vitro in (C). The data underlying this figure can be found in S1 Data. aa, amino acid; AUP1, ancient ubiquitous protein 1; CHX, cycloheximide; G2BR, UBE2G2 Binding Region; KO, knockout; WT, wild type.
# In vitro translated ^35S methionine-labeled E2s were generated using the E. coli T7-S30 Extract System (Promega) and excess ^35S methionine was removed by desalting twice with Zeba Spin Desalting Columns (Thermo Scientific). GST fusion proteins were quantified by Coomassie blue staining. Moreover, 0.1 μg of GST fusion protein (approximately 3 pmol) was prebound to GS 4B (GE Healthcare) and then incubated with approximately 10^5 cpm of ^35S methionine-labeled E2 (approximately 0.2 pmol) in 200 μl Binding Buffer (25 mM Tris-HCl, pH 7.4, 50 mM NaCl, 5 mM DTT, 0.5% IGEPAL CA-630) overnight at 4°C. Beads were extensively washed in Binding Buffer, resolved on Bis/Tris polyacrylamide gels under reducing conditions, dried and visualized on a Typhoon FLA 7000 (GE Healthcare). Binding was quantified using ImageQuant Software.
# [3] = system: UBE2D2/UBCH5B; test: GST pulldown of in vitro translated 35S-UBE2D2; format: binding; conditions: GST-AUP1 aa 292 to 410, overnight 4°C, pH 7.4
# Description: as §1, §2
# [4] = system: UBE2J1/UBC6e; test: GST pulldown of in vitro translated 35S-UBE2J1; format: binding; conditions: GST-AUP1 aa 292 to 410, overnight 4°C, pH 7.4
# Description: as §1, §2
# [5] = system: UBE2G1; test: GST pulldown of in vitro translated 35S-UBE2G1; format: binding; conditions: GST-AUP1 aa 292 to 410, overnight 4°C, pH 7.4
# Description: as §1, §2
# [6] = biological target: T2, purified UBE2G2; test: NMR titration; ^1H-^15N HSQC of ^15N-labeled UBE2G2 at 150 μM, alone or bound to G2BR peptide, titrated with gp78 RING 0 to 450 μM; chemical shift perturbations fitted; 50 mM Tris-Cl pH 7.0, 0.5 mM TCEP, 100 μM zinc sulfate; conditions: both partners purified
# [7] = biological target: T3, UBE2G2:G2BR^gp78 complex; test: as above; conditions: both partners purified
# [8] = biological target: T4, UBE2G2:G2BR^AUP1 complex; test: as above; conditions: both partners purified
Molecule,binding to UBE2D3 [1],binding to UBE2G2 [2],binding to UBE2D2 [3],binding to UBE2J1 [4],binding to UBE2G1 [5],Kd [6] [µM],Kd [7] [µM],Kd [8] [µM]
"GST fusion of AUP1: GST fusion of AUP1 that includes the G2BR (protein, left off: GST, end not stated, kept, GST fusion of AUP1 that includes the G2BR) SPDVQLATLAQRVKEVLPHVPLGVIQRDLAKTGCVDLTITNLLEGAVAFMPEDITKGTQSLPTASASKFPSSGPVTPQPTALTFAKSSWARQESLQERKQALYEYARRRFTERRAQEAD",no discernable binding,bound UBE2G2,no discernable binding,failed to show detectable binding,not UBE2G1,,,
"gp78 RING domain (domain or fragment, UniProt Q9UKV5 313-393, looked up, gp78 (aka AMFR or RNF45), RING domain; the limits 313-393 are those of the only gp78-RING construct that the methods name; also called gp78-RING construct (aa 313 to 393)) KNYLRVVGNMEARFAVATPEELAVNNDDCAICWDSMQAARKLPCGHLFHNSCLRSWLEQDTSCPTCRMSLNIADNNRVREE",,,,,,207 ± 6.4,20.3,22.5
